Drawing on patent publication US20150045540A1 (published 2015), this text covers EC50 for 13 molecules.

What is called EC50 is the concentration at which the effect is half-maximal.

The target of experiment [1] is T1, Placenta Growth Factor (PlGF), human (human, UniProt P49763 21-149).
T1 chain: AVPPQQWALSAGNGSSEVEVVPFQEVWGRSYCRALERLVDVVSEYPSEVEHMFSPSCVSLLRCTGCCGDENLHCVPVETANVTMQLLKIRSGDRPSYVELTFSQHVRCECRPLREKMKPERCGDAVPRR
Kind of experiment: ELISA. (An ELISA detects its analyte on a solid surface through an enzyme-linked reagent.)

Experiment [2] has as its target Hepatocyte Growth Factor (HGF), human (human, UniProt P14210 32-728). Nature of the experiment: ELISA.

Chain of Hepatocyte Growth Factor (HGF), human (P14210 32-728): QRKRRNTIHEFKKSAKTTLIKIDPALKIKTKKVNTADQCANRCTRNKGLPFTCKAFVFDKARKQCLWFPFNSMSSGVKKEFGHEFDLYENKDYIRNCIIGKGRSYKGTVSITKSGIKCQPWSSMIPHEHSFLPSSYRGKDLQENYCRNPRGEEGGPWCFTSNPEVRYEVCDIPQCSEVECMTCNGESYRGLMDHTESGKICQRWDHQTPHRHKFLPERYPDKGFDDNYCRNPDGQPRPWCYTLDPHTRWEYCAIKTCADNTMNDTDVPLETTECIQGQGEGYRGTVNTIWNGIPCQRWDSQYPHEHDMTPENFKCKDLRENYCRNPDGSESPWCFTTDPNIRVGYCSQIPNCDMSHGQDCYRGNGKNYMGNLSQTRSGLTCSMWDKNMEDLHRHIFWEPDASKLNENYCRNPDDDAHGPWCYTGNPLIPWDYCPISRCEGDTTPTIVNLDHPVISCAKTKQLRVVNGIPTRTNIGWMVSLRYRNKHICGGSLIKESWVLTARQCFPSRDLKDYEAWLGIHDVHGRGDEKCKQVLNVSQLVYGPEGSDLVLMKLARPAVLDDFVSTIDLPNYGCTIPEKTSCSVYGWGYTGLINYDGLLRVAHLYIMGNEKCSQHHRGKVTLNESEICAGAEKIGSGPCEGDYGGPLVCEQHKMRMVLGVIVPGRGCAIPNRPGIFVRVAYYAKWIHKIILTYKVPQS

B1: HC 5/SLC 2 (antibody)
chain 1: GQGTLVTVSSASTKGQPVLHQPPAMSSALGTTIRLTCTLRNDHDIGVYSVYWYQQRPGHPPRFLLRYFSQSDKSQGPQVPPRFSGSKDVARNRGYLSISELQPEDEAMYYCAMGARSRCWPRGFQSKHNSVTHVFGSGTQLTVLSQPKATPSVTLFPPSSEELQANKATLVCLMNDFYPGILTVTWKADGTPITQGVEMTTPSKQSNNKYAASSYLSLTPEQWRSRRSYSCQVMHEGSTVEKTVAPAECS
chain 2: MSWAPVLLMLFVYCTGCGPQPVLHQPPAMSSALGTTIRLTCTLRNDHDIGVYSVYWYQQRPGHPPRFLLRYFSQSDKSQGPQVPPRFSGSKDVARNRGYLSISVTHVFGSGTQLTVLSQQVQLVQ
With B1, the EC50 in experiment [1] worked out at 0.197 nM; in experiment [2] it was 0.051 nM.

B2: HC 5/SLC 6 (antibody)
chain 1: GQGTLVTVSSASTKGQPVLHQPPAMSSALGTTIRLTCTLRNDHDIGVYSVYWYQQRPGHPPRFLLRYFSQSDKSQGPQVPPRFSGSKDVARNRGYLSISELQPEDEAMYYCAMGARSRCWPRGFQSKHNSVTHVFGSGTQLTVLSQPKATPSVTLFPPSSEELQANKATLVCLMNDFYPGILTVTWKADGTPITQGVEMTTPSKQSNNKYAASSYLSLTPEQWRSRRSYSCQVMHEGSTVEKTVAPAECS
chain 2: MSWAPVLLMLFVYCTGCGPQPVLHQPPAMSSALGTTIRLTCTLRNDHDIGVYSVYWYQQRPGHPPRFLLRYFSQSDKSQGPQVPPRFSGSKDVARNRGYLSISVTHVFGSGTQLTVLSQPKATQVQLVQ
Regarding B2, the values for the EC50 in experiment [1] and in experiment [2] were 0.157 nM and 0.059 nM, respectively.

B3: HC 10/SLC 8 (antibody)
chain 1: GQGTLVTVSSASTKGPSVFPQPVLHQPPAMSSALGTTIRLTCTLRNDHDIGVYSVYWYQQRPGHPPRFLLRYFSQSDKSQGPQVPPRFSGSKDVARNRGYLSISELQPEDEAMYYCAMGARSRCWPRGFQSKHNSVTHVFGSGTQLTVLSQPKATPSVTLFPPSSEELQANKATLVCLMNDFYPGILTVTWKADGTPITQGVEMTTPSKQSNNKYAASSYLSLTPEQWRSRRSYSCQVMHEGSTVEKTVAPAECS
chain 2: MSWAPVLLMLFVYCTGCGPQPVLHQPPAMSSALGTTIRLTCTLRNDHDIGVYSVYWYQQRPGHPPRFLLRYFSQSDKSQGPQVPPRFSGSKDVARNRGYLSISVTHVFGSGTQLTVLSQPKATPSQVQLVQ
Turning to B3, the EC50 amounted to 0.046 nM in experiment [1] and 0.048 nM in experiment [2].

B4: HC 10/SLC 6 (antibody)
chain 1: GQGTLVTVSSASTKGPSVFPQPVLHQPPAMSSALGTTIRLTCTLRNDHDIGVYSVYWYQQRPGHPPRFLLRYFSQSDKSQGPQVPPRFSGSKDVARNRGYLSISELQPEDEAMYYCAMGARSRCWPRGFQSKHNSVTHVFGSGTQLTVLSQPKATPSVTLFPPSSEELQANKATLVCLMNDFYPGILTVTWKADGTPITQGVEMTTPSKQSNNKYAASSYLSLTPEQWRSRRSYSCQVMHEGSTVEKTVAPAECS
chain 2: MSWAPVLLMLFVYCTGCGPQPVLHQPPAMSSALGTTIRLTCTLRNDHDIGVYSVYWYQQRPGHPPRFLLRYFSQSDKSQGPQVPPRFSGSKDVARNRGYLSISVTHVFGSGTQLTVLSQPKATQVQLVQ
As to B4, the values for the EC50 in experiment [1] and in experiment [2] were 0.089 nM and 0.061 nM, respectively.

B5: HC 10/SLC 4 (antibody)
chain 1: GQGTLVTVSSASTKGPSVFPQPVLHQPPAMSSALGTTIRLTCTLRNDHDIGVYSVYWYQQRPGHPPRFLLRYFSQSDKSQGPQVPPRFSGSKDVARNRGYLSISELQPEDEAMYYCAMGARSRCWPRGFQSKHNSVTHVFGSGTQLTVLSQPKATPSVTLFPPSSEELQANKATLVCLMNDFYPGILTVTWKADGTPITQGVEMTTPSKQSNNKYAASSYLSLTPEQWRSRRSYSCQVMHEGSTVEKTVAPAECS
chain 2: MSWAPVLLMLFVYCTGCGPQPVLHQPPAMSSALGTTIRLTCTLRNDHDIGVYSVYWYQQRPGHPPRFLLRYFSQSDKSQGPQVPPRFSGSKDVARNRGYLSISVTHVFGSGTQLTVLSQPKQVQLVQ
As to B5, the EC50 in experiment [1] is 0.153 nM; in experiment [2], 0.07 nM.

B6: HC 3/SLC 8 (antibody)
chain 1: GQGTLVTVSSASTQPVLHQPPAMSSALGTTIRLTCTLRNDHDIGVYSVYWYQQRPGHPPRFLLRYFSQSDKSQGPQVPPRFSGSKDVARNRGYLSISELQPEDEAMYYCAMGARSRCWPRGFQSKHNSVTHVFGSGTQLTVLSQPKATPSVTLFPPSSEELQANKATLVCLMNDFYPGILTVTWKADGTPITQGVEMTTPSKQSNNKYAASSYLSLTPEQWRSRRSYSCQVMHEGSTVEKTVAPAECS
chain 2: MSWAPVLLMLFVYCTGCGPQPVLHQPPAMSSALGTTIRLTCTLRNDHDIGVYSVYWYQQRPGHPPRFLLRYFSQSDKSQGPQVPPRFSGSKDVARNRGYLSISVTHVFGSGTQLTVLSQPKATPSQVQLVQ
For the molecule B6, the values for the EC50 in experiment [1] and in experiment [2] were 0.157 nM and 0.056 nM, respectively.

B7: HC 2/SLC 6 (antibody)
chain 1: GQGTLVTVSSASQPVLHQPPAMSSALGTTIRLTCTLRNDHDIGVYSVYWYQQRPGHPPRFLLRYFSQSDKSQGPQVPPRFSGSKDVARNRGYLSISELQPEDEAMYYCAMGARSRCWPRGFQSKHNSVTHVFGSGTQLTVLSQPKATPSVTLFPPSSEELQANKATLVCLMNDFYPGILTVTWKADGTPITQGVEMTTPSKQSNNKYAASSYLSLTPEQWRSRRSYSCQVMHEGSTVEKTVAPAECS
chain 2: MSWAPVLLMLFVYCTGCGPQPVLHQPPAMSSALGTTIRLTCTLRNDHDIGVYSVYWYQQRPGHPPRFLLRYFSQSDKSQGPQVPPRFSGSKDVARNRGYLSISVTHVFGSGTQLTVLSQPKATQVQLVQ
For B7, the EC50 came to 0.161 nM in experiment [1] and 0.056 nM in experiment [2].

B8: HC 7/SLC 15 (antibody)
chain 1: GQGTLVTVSSASTKGPSQPVLHQPPAMSSALGTTIRLTCTLRNDHDIGVYSVYWYQQRPGHPPRFLLRYFSQSDKSQGPQVPPRFSGSKDVARNRGYLSISELQPEDEAMYYCAMGARSRCWPRGFQSKHNSVTHVFGSGTQLTVLSQPKATPSVTLFPPSSEELQANKATLVCLMNDFYPGILTVTWKADGTPITQGVEMTTPSKQSNNKYAASSYLSLTPEQWRSRRSYSCQVMHEGSTVEKTVAPAECS
chain 2: MSWAPVLLMLFVYCTGCGPQPVLHQPPAMSSALGTTIRLTCTLRNDHDIGVYSVYWYQQRPGHPPRFLLRYFSQSDKSQGPQVPPRFSGSKDVARNRGYLSISVTHVFGSGTQLTVLSQPKATPSVTGGGGSQVQLVQ
B8: the EC50 in experiment [1] turned out to be 0.052 nM; in experiment [2] it was 0.053 nM.

B9: HC 9/SLC 9 (antibody)
chain 1: GQGTLVTVSSASTKGPSVFQPVLHQPPAMSSALGTTIRLTCTLRNDHDIGVYSVYWYQQRPGHPPRFLLRYFSQSDKSQGPQVPPRFSGSKDVARNRGYLSISELQPEDEAMYYCAMGARSRCWPRGFQSKHNSVTHVFGSGTQLTVLSQPKATPSVTLFPPSSEELQANKATLVCLMNDFYPGILTVTWKADGTPITQGVEMTTPSKQSNNKYAASSYLSLTPEQWRSRRSYSCQVMHEGSTVEKTVAPAECS
chain 2: MSWAPVLLMLFVYCTGCGPQPVLHQPPAMSSALGTTIRLTCTLRNDHDIGVYSVYWYQQRPGHPPRFLLRYFSQSDKSQGPQVPPRFSGSKDVARNRGYLSISVTHVFGSGTQLTVLSQPKATPSVQVQLVQ
With B9, the EC50 was found to be 0.046 nM in experiment [1] and 0.058 nM in experiment [2].

B10: HC 6/SLC 4 (antibody)
chain 1: GQGTLVTVSSASTKGPQPVLHQPPAMSSALGTTIRLTCTLRNDHDIGVYSVYWYQQRPGHPPRFLLRYFSQSDKSQGPQVPPRFSGSKDVARNRGYLSISELQPEDEAMYYCAMGARSRCWPRGFQSKHNSVTHVFGSGTQLTVLSQPKATPSVTLFPPSSEELQANKATLVCLMNDFYPGILTVTWKADGTPITQGVEMTTPSKQSNNKYAASSYLSLTPEQWRSRRSYSCQVMHEGSTVEKTVAPAECS
chain 2: MSWAPVLLMLFVYCTGCGPQPVLHQPPAMSSALGTTIRLTCTLRNDHDIGVYSVYWYQQRPGHPPRFLLRYFSQSDKSQGPQVPPRFSGSKDVARNRGYLSISVTHVFGSGTQLTVLSQPKQVQLVQ
In the case of B10, the EC50 in experiment [1] was 0.191 nM; in experiment [2] it was 0.06 nM.

B11: HC 3/SLC 4 (antibody)
chain 1: GQGTLVTVSSASTQPVLHQPPAMSSALGTTIRLTCTLRNDHDIGVYSVYWYQQRPGHPPRFLLRYFSQSDKSQGPQVPPRFSGSKDVARNRGYLSISELQPEDEAMYYCAMGARSRCWPRGFQSKHNSVTHVFGSGTQLTVLSQPKATPSVTLFPPSSEELQANKATLVCLMNDFYPGILTVTWKADGTPITQGVEMTTPSKQSNNKYAASSYLSLTPEQWRSRRSYSCQVMHEGSTVEKTVAPAECS
chain 2: MSWAPVLLMLFVYCTGCGPQPVLHQPPAMSSALGTTIRLTCTLRNDHDIGVYSVYWYQQRPGHPPRFLLRYFSQSDKSQGPQVPPRFSGSKDVARNRGYLSISVTHVFGSGTQLTVLSQPKQVQLVQ
Regarding B11, the EC50 in experiment [1] stood at 0.22 nM; in experiment [2], 0.067 nM.

B12: HC 2/SLC 4 (antibody)
chain 1: GQGTLVTVSSASQPVLHQPPAMSSALGTTIRLTCTLRNDHDIGVYSVYWYQQRPGHPPRFLLRYFSQSDKSQGPQVPPRFSGSKDVARNRGYLSISELQPEDEAMYYCAMGARSRCWPRGFQSKHNSVTHVFGSGTQLTVLSQPKATPSVTLFPPSSEELQANKATLVCLMNDFYPGILTVTWKADGTPITQGVEMTTPSKQSNNKYAASSYLSLTPEQWRSRRSYSCQVMHEGSTVEKTVAPAECS
chain 2: MSWAPVLLMLFVYCTGCGPQPVLHQPPAMSSALGTTIRLTCTLRNDHDIGVYSVYWYQQRPGHPPRFLLRYFSQSDKSQGPQVPPRFSGSKDVARNRGYLSISVTHVFGSGTQLTVLSQPKQVQLVQ
On to B12, for which the EC50 in experiment [1] was 0.175 nM; in experiment [2] it was 0.058 nM.

B13: HC 3/SLC 5 (antibody)
chain 1: GQGTLVTVSSASTQPVLHQPPAMSSALGTTIRLTCTLRNDHDIGVYSVYWYQQRPGHPPRFLLRYFSQSDKSQGPQVPPRFSGSKDVARNRGYLSISELQPEDEAMYYCAMGARSRCWPRGFQSKHNSVTHVFGSGTQLTVLSQPKATPSVTLFPPSSEELQANKATLVCLMNDFYPGILTVTWKADGTPITQGVEMTTPSKQSNNKYAASSYLSLTPEQWRSRRSYSCQVMHEGSTVEKTVAPAECS
chain 2: MSWAPVLLMLFVYCTGCGPQPVLHQPPAMSSALGTTIRLTCTLRNDHDIGVYSVYWYQQRPGHPPRFLLRYFSQSDKSQGPQVPPRFSGSKDVARNRGYLSISVTHVFGSGTQLTVLSQPKAQVQLVQ
Regarding B13, the EC50 in experiment [1] was found to be 0.249 nM; in experiment [2], 0.054 nM.
